The test concerns purified neutrophils (PMN). As to the kind of experiment: In vitro migration assay with purified neutrophils. Type of test: cell-based, human. As to conditions: various concentrations of recombinant DEK in lower chamber; 79 nM vs control. As to the method:
Purified neutrophils (PMN) were treated with IL-8 (50 nM), the CXCR2 small molecule inhibitor SB225002 (3 μM), DEK (79 nM), IL-8 plus SB225002, or DEK plus SB225002 for 5 min at room temperature before and then during the migration assay. After 1 h, the number of fluorescently labeled migrating cells in the lower chamber was determined at 485 nM/535 nm wavelengths by Tecan GENios (Phenix, Austria). […] The results are expressed as the average fold increase in the number of cells migrating toward DEK compared to control wells containing medium only. White blood cells were isolated from venous blood from healthy donors as described above, and were depleted of monocytes by adherence to plastic for 2 h as described in the Cell Preparation section. […] The cells were washed and resuspended at 1×10^6 cells/ml in serum-free RPMI medium, and 1×10^5 labeled cells in 100 μl were added to the upper chamber of a 24-well Transwell chemotaxis insert with pore size of 3 μm or 5 μm (Corning, N.Y.). The lower chambers contained serum-free RPMI medium alone, recombinant DEK made in baculovirus, or a deletion mutant of the β form of human GLI-2 (See, e.g., Smith et al., J Virol 75, 2301-13 (2001)) produced in baculovirus as the control protein. After 30 min to 1 h, the number of fluorescently labeled migrating cells in the lower chamber was determined at […] wavelength using a Tecan GENios plate-reader (Phenix, Austria). The results were expressed as the average fold increase of the number of cells migrating toward lower chambers containing DEK divided by the number of cells migrating toward the control wells (medium alone). Forty ml of venous blood was collected from healthy volunteers into a 50 ml sterile syringe containing a mixture of 7 ml 0.25 M Citrate (0.17 M NA Citrate and 0.083 M Citric Acid) and 6% Dextran in PBS buffer. The blood was incubated for 30 min at room temperature and the upper phase was collected and further separated by Ficoll as described above. The neutrophil fraction was collected and washed with HBSS buffer and then pelleted again. […]

Entries after “also recorded” stand apart in the source; their conditions may differ.

B1: DEK: full-length recombinant DEK protein produced in baculovirus (protein, UniProt P35659 1-375, looked up)
chain: MSASAPAAEGEGTPTQPASEKEPEMPGPREESEEEEDEDDEEEEEEEKEKSLIVEGKREKKKVERLTMQVSSLQREPFTIAQGKGQKLCEIERIHFFLSKKKTDELRNLHKLLYNRPGTVSSLKKNVGQFSGFPFEKGSVQYKKKEEMLKKFRNAMLKSICEVLDLERSGVNSELVKRILNFLMHPKPSGKPLPKSKKTCSKGSKKERNSSGMARKAKRTKCPEILSDESSSDEDEKKNKEESSDDEDKESEEEPPKKTAKREKPKQKATSKSKKSVKSANVKKADSSTTKKNQNSSKKESESEDSSDDEPLIKKLKKPPTDEELKETIKKLLASANLEEVTMKQICKKVYENYPTYDLTERKDFIKTTVKELIS
modifications: full-length
notes: full-length recombinant DEK protein produced in baculovirus
With B1, the “neutrophil migration toward DEK” value is on record as “statistically significant; also recorded: specifically migrate toward DEK in a dose-dependent manner”.
